{
  "source": "patent US20260209293A1",
  "about": "(Novo Nordisk, published 2026)",
  "key": {"[1]": {"biological_target": "T1, human amylin-3(a) receptor (human, UniProt P30988 25-474; O60896 24-148)", "T1 sequence (looked up) 1": "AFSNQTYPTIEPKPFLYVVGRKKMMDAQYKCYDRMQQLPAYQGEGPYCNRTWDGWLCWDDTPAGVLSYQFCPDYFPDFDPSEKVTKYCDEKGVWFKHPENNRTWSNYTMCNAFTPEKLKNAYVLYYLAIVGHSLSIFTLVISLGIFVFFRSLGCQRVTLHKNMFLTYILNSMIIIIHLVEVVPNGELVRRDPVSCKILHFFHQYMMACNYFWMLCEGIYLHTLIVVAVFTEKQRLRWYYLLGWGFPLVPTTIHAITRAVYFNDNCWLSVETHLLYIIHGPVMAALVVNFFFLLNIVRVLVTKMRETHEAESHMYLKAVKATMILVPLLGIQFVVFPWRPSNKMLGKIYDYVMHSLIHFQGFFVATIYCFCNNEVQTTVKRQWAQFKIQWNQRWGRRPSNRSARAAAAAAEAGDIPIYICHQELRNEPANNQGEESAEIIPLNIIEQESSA", "T1 sequence (looked up) 2": "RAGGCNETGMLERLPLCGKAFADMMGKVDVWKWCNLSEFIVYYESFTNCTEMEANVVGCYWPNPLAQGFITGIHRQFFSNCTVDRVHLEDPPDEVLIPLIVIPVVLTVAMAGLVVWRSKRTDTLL", "assay": "cell-based or functional assay"}, "[2]": {"biological_target": "T2, human calcitonin receptor (a) (human, UniProt P30988 25-474)", "T2 sequence (looked up)": "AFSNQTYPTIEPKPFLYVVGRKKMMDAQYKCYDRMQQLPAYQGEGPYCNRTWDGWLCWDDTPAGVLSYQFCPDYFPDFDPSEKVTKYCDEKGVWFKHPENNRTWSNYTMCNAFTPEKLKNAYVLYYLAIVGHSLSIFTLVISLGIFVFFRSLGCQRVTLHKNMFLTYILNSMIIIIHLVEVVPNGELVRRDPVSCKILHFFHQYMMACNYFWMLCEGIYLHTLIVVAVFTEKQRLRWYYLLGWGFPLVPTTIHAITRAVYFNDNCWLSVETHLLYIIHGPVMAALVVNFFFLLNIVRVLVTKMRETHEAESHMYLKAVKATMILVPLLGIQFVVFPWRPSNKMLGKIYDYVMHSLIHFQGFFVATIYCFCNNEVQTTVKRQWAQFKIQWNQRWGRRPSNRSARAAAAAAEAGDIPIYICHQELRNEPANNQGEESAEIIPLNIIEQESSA", "assay": "cell-based or functional assay"}},
  "note": "*1 amine or outer side, *2 acyl side, *3 side chain or, on linkers, in order; H or OH if unused. The star is where a group is joined. C18 diacid = O=C(O)CCCCCCCCCCCCCCCCC(=O)*; γGlu = O=C(O)[C@H](CCC(=O)[*:2])N[*:1]",
  "data": [
    {"binder": "{C18 diacid-γGlu}-ASHLSTAQTQRLAEFLHHSSEPFGAIPSSTEVGPETP-NH2 (SMILES CC[C@H](C)[C@H](NC(=O)[C@H](C)NC(=O)CNC(=O)[C@H](Cc1ccccc1)NC(=O)[C@@H]1CCCN1C(=O)[C@H](CCC(=O)O)NC(=O)[C@H](CO)NC(=O)[C@H](CO)NC(=O)[C@H](Cc1c[nH]cn1)NC(=O)[C@H](Cc1c[nH]cn1)NC(=O)[C@H](CC(C)C)NC(=O)[C@H](Cc1ccccc1)NC(=O)[C@H](CCC(=O)O)NC(=O)[C@H](C)NC(=O)[C@H](CC(C)C)NC(=O)[C@H](CCCNC(=N)N)NC(=O)[C@H](CCC(N)=O)NC(=O)[C@@H](NC(=O)[C@H](CCC(N)=O)NC(=O)[C@H](C)NC(=O)[C@@H](NC(=O)[C@H](CO)NC(=O)[C@H](CC(C)C)NC(=O)[C@H](Cc1c[nH]cn1)NC(=O)[C@H](CO)NC(=O)[C@H](C)NC(=O)CC[C@H](NC(=O)CCCCCCCCCCCCCCCCC(=O)O)C(=O)O)[C@@H](C)O)[C@@H](C)O)C(=O)N1CCC[C@H]1C(=O)N[C@@H](CO)C(=O)N[C@@H](CO)C(=O)N[C@H](C(=O)N[C@@H](CCC(=O)O)C(=O)N[C@H](C(=O)NCC(=O)N1CCC[C@H]1C(=O)N[C@@H](CCC(=O)O)C(=O)N[C@H](C(=O)N1CCC[C@H]1C(N)=O)[C@@H](C)O)C(C)C)[C@@H](C)O)", "values": [
      {"measurement": "hAmyR3 potency, EC50 (pM); CRE-luciferase reporter in BHK cells", "setting": "[1]", "result": 2.68, "unit": "pM"},
      {"measurement": "hCalcR potency, EC50 (pM); CRE-luciferase reporter in BHK cells", "setting": "[2]", "result": 1.78, "unit": "pM"}
    ]},
    {"binder": "{C18 diacid-γGlu}-ASHLSTAQTQRLAEFLHHFGPILPPTDVGSETP-NH2 (SMILES CC[C@H](C)[C@H](NC(=O)[C@@H]1CCCN1C(=O)CNC(=O)[C@H](Cc1ccccc1)NC(=O)[C@H](Cc1c[nH]cn1)NC(=O)[C@H](Cc1c[nH]cn1)NC(=O)[C@H](CC(C)C)NC(=O)[C@H](Cc1ccccc1)NC(=O)[C@H](CCC(=O)O)NC(=O)[C@H](C)NC(=O)[C@H](CC(C)C)NC(=O)[C@H](CCCNC(=N)N)NC(=O)[C@H](CCC(N)=O)NC(=O)[C@@H](NC(=O)[C@H](CCC(N)=O)NC(=O)[C@H](C)NC(=O)[C@@H](NC(=O)[C@H](CO)NC(=O)[C@H](CC(C)C)NC(=O)[C@H](Cc1c[nH]cn1)NC(=O)[C@H](CO)NC(=O)[C@H](C)NC(=O)CC[C@H](NC(=O)CCCCCCCCCCCCCCCCC(=O)O)C(=O)O)[C@@H](C)O)[C@@H](C)O)C(=O)N[C@@H](CC(C)C)C(=O)N1CCC[C@H]1C(=O)N1CCC[C@H]1C(=O)N[C@H](C(=O)N[C@@H](CC(=O)O)C(=O)N[C@H](C(=O)NCC(=O)N[C@@H](CO)C(=O)N[C@@H](CCC(=O)O)C(=O)N[C@H](C(=O)N1CCC[C@H]1C(N)=O)[C@@H](C)O)C(C)C)[C@@H](C)O)", "values": [
      {"measurement": "hAmyR3 potency, EC50 (pM); CRE-luciferase reporter in BHK cells", "setting": "[1]", "result": 2.06, "unit": "pM"},
      {"measurement": "hCalcR potency, EC50 (pM); CRE-luciferase reporter in BHK cells", "setting": "[2]", "result": 1.72, "unit": "pM"}
    ]},
    {"binder": "{C18 diacid-γGlu}-ASELSTAQTQRLAEFLHHFGPILPPTDVGSETP-NH2 (SMILES CC[C@H](C)[C@H](NC(=O)[C@@H]1CCCN1C(=O)CNC(=O)[C@H](Cc1ccccc1)NC(=O)[C@H](Cc1c[nH]cn1)NC(=O)[C@H](Cc1c[nH]cn1)NC(=O)[C@H](CC(C)C)NC(=O)[C@H](Cc1ccccc1)NC(=O)[C@H](CCC(=O)O)NC(=O)[C@H](C)NC(=O)[C@H](CC(C)C)NC(=O)[C@H](CCCNC(=N)N)NC(=O)[C@H](CCC(N)=O)NC(=O)[C@@H](NC(=O)[C@H](CCC(N)=O)NC(=O)[C@H](C)NC(=O)[C@@H](NC(=O)[C@H](CO)NC(=O)[C@H](CC(C)C)NC(=O)[C@H](CCC(=O)O)NC(=O)[C@H](CO)NC(=O)[C@H](C)NC(=O)CC[C@H](NC(=O)CCCCCCCCCCCCCCCCC(=O)O)C(=O)O)[C@@H](C)O)[C@@H](C)O)C(=O)N[C@@H](CC(C)C)C(=O)N1CCC[C@H]1C(=O)N1CCC[C@H]1C(=O)N[C@H](C(=O)N[C@@H](CC(=O)O)C(=O)N[C@H](C(=O)NCC(=O)N[C@@H](CO)C(=O)N[C@@H](CCC(=O)O)C(=O)N[C@H](C(=O)N1CCC[C@H]1C(N)=O)[C@@H](C)O)C(C)C)[C@@H](C)O)", "values": [
      {"measurement": "hAmyR3 potency, EC50 (pM); CRE-luciferase reporter in BHK cells", "setting": "[1]", "result": 5.2, "unit": "pM"},
      {"measurement": "hCalcR potency, EC50 (pM); CRE-luciferase reporter in BHK cells", "setting": "[2]", "result": 3.08, "unit": "pM"}
    ]},
    {"binder": "{C18 diacid-γGlu-γGlu}-AGSLSTAQTQRLAEFLHHFGPILPPTDVGSETP-NH2 (SMILES CC[C@H](C)[C@H](NC(=O)[C@@H]1CCCN1C(=O)CNC(=O)[C@H](Cc1ccccc1)NC(=O)[C@H](Cc1c[nH]cn1)NC(=O)[C@H](Cc1c[nH]cn1)NC(=O)[C@H](CC(C)C)NC(=O)[C@H](Cc1ccccc1)NC(=O)[C@H](CCC(=O)O)NC(=O)[C@H](C)NC(=O)[C@H](CC(C)C)NC(=O)[C@H](CCCNC(=N)N)NC(=O)[C@H](CCC(N)=O)NC(=O)[C@@H](NC(=O)[C@H](CCC(N)=O)NC(=O)[C@H](C)NC(=O)[C@@H](NC(=O)[C@H](CO)NC(=O)[C@H](CC(C)C)NC(=O)[C@H](CO)NC(=O)CNC(=O)[C@H](C)NC(=O)CC[C@H](NC(=O)CC[C@H](NC(=O)CCCCCCCCCCCCCCCCC(=O)O)C(=O)O)C(=O)O)[C@@H](C)O)[C@@H](C)O)C(=O)N[C@@H](CC(C)C)C(=O)N1CCC[C@H]1C(=O)N1CCC[C@H]1C(=O)N[C@H](C(=O)N[C@@H](CC(=O)O)C(=O)N[C@H](C(=O)NCC(=O)N[C@@H](CO)C(=O)N[C@@H](CCC(=O)O)C(=O)N[C@H](C(=O)N1CCC[C@H]1C(N)=O)[C@@H](C)O)C(C)C)[C@@H](C)O)", "values": [
      {"measurement": "hAmyR3 potency, EC50 (pM); CRE-luciferase reporter in BHK cells", "setting": "[1]", "result": 2.37, "unit": "pM"},
      {"measurement": "hCalcR potency, EC50 (pM); CRE-luciferase reporter in BHK cells", "setting": "[2]", "result": 2.07, "unit": "pM"}
    ]},
    {"binder": "{C18 diacid-γGlu-γGlu}-ASHLSTAQTQRLAEFLHHFGPILPPTDVGSETP-NH2 (SMILES CC[C@H](C)[C@H](NC(=O)[C@@H]1CCCN1C(=O)CNC(=O)[C@H](Cc1ccccc1)NC(=O)[C@H](Cc1c[nH]cn1)NC(=O)[C@H](Cc1c[nH]cn1)NC(=O)[C@H](CC(C)C)NC(=O)[C@H](Cc1ccccc1)NC(=O)[C@H](CCC(=O)O)NC(=O)[C@H](C)NC(=O)[C@H](CC(C)C)NC(=O)[C@H](CCCNC(=N)N)NC(=O)[C@H](CCC(N)=O)NC(=O)[C@@H](NC(=O)[C@H](CCC(N)=O)NC(=O)[C@H](C)NC(=O)[C@@H](NC(=O)[C@H](CO)NC(=O)[C@H](CC(C)C)NC(=O)[C@H](Cc1c[nH]cn1)NC(=O)[C@H](CO)NC(=O)[C@H](C)NC(=O)CC[C@H](NC(=O)CC[C@H](NC(=O)CCCCCCCCCCCCCCCCC(=O)O)C(=O)O)C(=O)O)[C@@H](C)O)[C@@H](C)O)C(=O)N[C@@H](CC(C)C)C(=O)N1CCC[C@H]1C(=O)N1CCC[C@H]1C(=O)N[C@H](C(=O)N[C@@H](CC(=O)O)C(=O)N[C@H](C(=O)NCC(=O)N[C@@H](CO)C(=O)N[C@@H](CCC(=O)O)C(=O)N[C@H](C(=O)N1CCC[C@H]1C(N)=O)[C@@H](C)O)C(C)C)[C@@H](C)O)", "values": [
      {"measurement": "hAmyR3 potency, EC50 (pM); CRE-luciferase reporter in BHK cells", "setting": "[1]", "result": 2.03, "unit": "pM"},
      {"measurement": "hCalcR potency, EC50 (pM); CRE-luciferase reporter in BHK cells", "setting": "[2]", "result": 2.13, "unit": "pM"}
    ]},
    {"binder": "{C18 diacid-γGlu-γGlu}-ASHLSTAQTQRLAEFLHHFGPILPPTDVGSETY-NH2 (SMILES CC[C@H](C)[C@H](NC(=O)[C@@H]1CCCN1C(=O)CNC(=O)[C@H](Cc1ccccc1)NC(=O)[C@H](Cc1c[nH]cn1)NC(=O)[C@H](Cc1c[nH]cn1)NC(=O)[C@H](CC(C)C)NC(=O)[C@H](Cc1ccccc1)NC(=O)[C@H](CCC(=O)O)NC(=O)[C@H](C)NC(=O)[C@H](CC(C)C)NC(=O)[C@H](CCCNC(=N)N)NC(=O)[C@H](CCC(N)=O)NC(=O)[C@@H](NC(=O)[C@H](CCC(N)=O)NC(=O)[C@H](C)NC(=O)[C@@H](NC(=O)[C@H](CO)NC(=O)[C@H](CC(C)C)NC(=O)[C@H](Cc1c[nH]cn1)NC(=O)[C@H](CO)NC(=O)[C@H](C)NC(=O)CC[C@H](NC(=O)CC[C@H](NC(=O)CCCCCCCCCCCCCCCCC(=O)O)C(=O)O)C(=O)O)[C@@H](C)O)[C@@H](C)O)C(=O)N[C@@H](CC(C)C)C(=O)N1CCC[C@H]1C(=O)N1CCC[C@H]1C(=O)N[C@H](C(=O)N[C@@H](CC(=O)O)C(=O)N[C@H](C(=O)NCC(=O)N[C@@H](CO)C(=O)N[C@@H](CCC(=O)O)C(=O)N[C@H](C(=O)N[C@@H](Cc1ccc(O)cc1)C(N)=O)[C@@H](C)O)C(C)C)[C@@H](C)O)", "values": [
      {"measurement": "hAmyR3 potency, EC50 (pM); CRE-luciferase reporter in BHK cells", "setting": "[1]", "result": 5.71, "unit": "pM"},
      {"measurement": "hCalcR potency, EC50 (pM); CRE-luciferase reporter in BHK cells", "setting": "[2]", "result": 15.7, "unit": "pM"}
    ]}
  ]
}
